Test results as given in patent US20220298218A1 (ANTAG THERAPEUTICS, published 2022).
The star is where a group is joined. C16 diacid = O=C(O)CCCCCCCCCCCCCCC(=O)*

Molecular target: T1, human GIP receptor (human, UniProt P48546 22-466)
T1 sequence (looked up): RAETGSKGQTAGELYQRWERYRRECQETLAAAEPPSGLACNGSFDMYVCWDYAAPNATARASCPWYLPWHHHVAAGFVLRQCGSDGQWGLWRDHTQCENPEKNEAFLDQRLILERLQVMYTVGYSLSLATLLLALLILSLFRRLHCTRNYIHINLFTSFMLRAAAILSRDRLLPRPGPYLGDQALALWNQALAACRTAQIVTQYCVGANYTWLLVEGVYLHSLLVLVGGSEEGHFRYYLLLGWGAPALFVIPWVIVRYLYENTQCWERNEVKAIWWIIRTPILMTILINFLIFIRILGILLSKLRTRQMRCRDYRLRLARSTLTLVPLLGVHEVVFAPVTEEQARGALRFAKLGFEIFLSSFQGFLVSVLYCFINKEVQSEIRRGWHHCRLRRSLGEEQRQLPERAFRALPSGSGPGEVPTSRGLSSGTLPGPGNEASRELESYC
Experiment: cell-based or functional assay

B1: AT633 (peptide)
peptide: Ac-EGTFISDYSIAMDKIK(C16 diacid)QQDFVNWLLAQKPSSGAPPPS-OH
SMILES: CC[C@H](C)[C@H](NC(=O)[C@H](CO)NC(=O)[C@H](Cc1ccc(O)cc1)NC(=O)[C@H](CC(=O)O)NC(=O)[C@H](CO)NC(=O)[C@@H](NC(=O)[C@H](Cc1ccccc1)NC(=O)[C@@H](NC(=O)CNC(=O)[C@H](CCC(=O)O)NC(C)=O)[C@@H](C)O)[C@@H](C)CC)C(=O)N[C@@H](C)C(=O)N[C@@H](CCSC)C(=O)N[C@@H](CC(=O)O)C(=O)N[C@@H](CCCCN)C(=O)N[C@H](C(=O)N[C@@H](CCCCNC(=O)CCCCCCCCCCCCCCC(=O)O)C(=O)N[C@@H](CCC(N)=O)C(=O)N[C@@H](CCC(N)=O)C(=O)N[C@@H](CC(=O)O)C(=O)N[C@@H](Cc1ccccc1)C(=O)N[C@H](C(=O)N[C@@H](CC(N)=O)C(=O)N[C@@H](Cc1c[nH]c2ccccc12)C(=O)N[C@@H](CC(C)C)C(=O)N[C@@H](CC(C)C)C(=O)N[C@@H](C)C(=O)N[C@@H](CCC(N)=O)C(=O)N[C@@H](CCCCN)C(=O)N1CCC[C@H]1C(=O)N[C@@H](CO)C(=O)N[C@@H](CO)C(=O)NCC(=O)N[C@@H](C)C(=O)N1CCC[C@H]1C(=O)N1CCC[C@H]1C(=O)N1CCC[C@H]1C(=O)N[C@@H](CO)C(=O)O)C(C)C)[C@@H](C)CC
With B1 the “cAMP agonism % Emax” value was 23% and the “cAMP antagonism pIC50” value was ~8.8.

B2: AT635 (peptide)
peptide: Ac-EGTFISEYSIAMEKIK(C16 diacid)QQDFVNWLLAQKPSSGAPPPS-OH
SMILES: CC[C@H](C)[C@H](NC(=O)[C@H](CO)NC(=O)[C@H](Cc1ccc(O)cc1)NC(=O)[C@H](CCC(=O)O)NC(=O)[C@H](CO)NC(=O)[C@@H](NC(=O)[C@H](Cc1ccccc1)NC(=O)[C@@H](NC(=O)CNC(=O)[C@H](CCC(=O)O)NC(C)=O)[C@@H](C)O)[C@@H](C)CC)C(=O)N[C@@H](C)C(=O)N[C@@H](CCSC)C(=O)N[C@@H](CCC(=O)O)C(=O)N[C@@H](CCCCN)C(=O)N[C@H](C(=O)N[C@@H](CCCCNC(=O)CCCCCCCCCCCCCCC(=O)O)C(=O)N[C@@H](CCC(N)=O)C(=O)N[C@@H](CCC(N)=O)C(=O)N[C@@H](CC(=O)O)C(=O)N[C@@H](Cc1ccccc1)C(=O)N[C@H](C(=O)N[C@@H](CC(N)=O)C(=O)N[C@@H](Cc1c[nH]c2ccccc12)C(=O)N[C@@H](CC(C)C)C(=O)N[C@@H](CC(C)C)C(=O)N[C@@H](C)C(=O)N[C@@H](CCC(N)=O)C(=O)N[C@@H](CCCCN)C(=O)N1CCC[C@H]1C(=O)N[C@@H](CO)C(=O)N[C@@H](CO)C(=O)NCC(=O)N[C@@H](C)C(=O)N1CCC[C@H]1C(=O)N1CCC[C@H]1C(=O)N1CCC[C@H]1C(=O)N[C@@H](CO)C(=O)O)C(C)C)[C@@H](C)CC
With B2 the “cAMP agonism % Emax” value was 5%, the “cAMP antagonism” value was 1.12 nM and the “cAMP antagonism % inhib” value was 87%. The “cAMP antagonism pIC50” value was 9.

B3: AT630 (peptide)
peptide: EGTFISDYSIAMDKIKQQDFVNWLLAQKPSSGAPPPS
HELM: PEPTIDE1{E.G.T.F.I.S.D.Y.S.I.A.M.D.K.I.K.Q.Q.D.F.V.N.W.L.L.A.Q.K.P.S.S.G.A.P.P.P.S}|PEPTIDE2{[O=C(O)CCCCCCCCCCCCCCC(=O)[*:2]].[gGlu]}$PEPTIDE1,PEPTIDE2,16:R3-2:R2$$$V2.0; N-terminus assumed
SMILES: CC[C@H](C)[C@H](NC(=O)[C@H](CO)NC(=O)[C@H](Cc1ccc(O)cc1)NC(=O)[C@H](CC(=O)O)NC(=O)[C@H](CO)NC(=O)[C@@H](NC(=O)[C@H](Cc1ccccc1)NC(=O)[C@@H](NC(=O)CNC(=O)[C@@H](N)CCC(=O)O)[C@@H](C)O)[C@@H](C)CC)C(=O)N[C@@H](C)C(=O)N[C@@H](CCSC)C(=O)N[C@@H](CC(=O)O)C(=O)N[C@@H](CCCCN)C(=O)N[C@H](C(=O)N[C@@H](CCCCNC(=O)CC[C@H](NC(=O)CCCCCCCCCCCCCCC(=O)O)C(=O)O)C(=O)N[C@@H](CCC(N)=O)C(=O)N[C@@H](CCC(N)=O)C(=O)N[C@@H](CC(=O)O)C(=O)N[C@@H](Cc1ccccc1)C(=O)N[C@H](C(=O)N[C@@H](CC(N)=O)C(=O)N[C@@H](Cc1c[nH]c2ccccc12)C(=O)N[C@@H](CC(C)C)C(=O)N[C@@H](CC(C)C)C(=O)N[C@@H](C)C(=O)N[C@@H](CCC(N)=O)C(=O)N[C@@H](CCCCN)C(=O)N1CCC[C@H]1C(=O)N[C@@H](CO)C(=O)N[C@@H](CO)C(=O)NCC(=O)N[C@@H](C)C(=O)N1CCC[C@H]1C(=O)N1CCC[C@H]1C(=O)N1CCC[C@H]1C(=O)N[C@@H](CO)C(=O)O)C(C)C)[C@@H](C)CC
With B3 the “cAMP agonism % Emax” value was 0%, the “cAMP antagonism” value was 11.2 nM and the “cAMP antagonism % inhib” value was 85%. For the same binder, the “cAMP antagonism pIC50” value was 8.

B4: AT632 (peptide)
peptide: TFISDYKIAMDKIHQQDFVNWLLAQKPSSGAPPPS
HELM: PEPTIDE1{T.F.I.S.D.Y.K.I.A.M.D.K.I.H.Q.Q.D.F.V.N.W.L.L.A.Q.K.P.S.S.G.A.P.P.P.S}|PEPTIDE2{[O=C(O)CCCCCCCCCCCCCCC(=O)[*:2]].[gGlu]}$PEPTIDE1,PEPTIDE2,7:R3-2:R2$$$V2.0; N-terminus assumed
SMILES: CC[C@H](C)[C@H](NC(=O)[C@H](CCCCNC(=O)CC[C@H](NC(=O)CCCCCCCCCCCCCCC(=O)O)C(=O)O)NC(=O)[C@H](Cc1ccc(O)cc1)NC(=O)[C@H](CC(=O)O)NC(=O)[C@H](CO)NC(=O)[C@@H](NC(=O)[C@H](Cc1ccccc1)NC(=O)[C@@H](N)[C@@H](C)O)[C@@H](C)CC)C(=O)N[C@@H](C)C(=O)N[C@@H](CCSC)C(=O)N[C@@H](CC(=O)O)C(=O)N[C@@H](CCCCN)C(=O)N[C@H](C(=O)N[C@@H](Cc1c[nH]cn1)C(=O)N[C@@H](CCC(N)=O)C(=O)N[C@@H](CCC(N)=O)C(=O)N[C@@H](CC(=O)O)C(=O)N[C@@H](Cc1ccccc1)C(=O)N[C@H](C(=O)N[C@@H](CC(N)=O)C(=O)N[C@@H](Cc1c[nH]c2ccccc12)C(=O)N[C@@H](CC(C)C)C(=O)N[C@@H](CC(C)C)C(=O)N[C@@H](C)C(=O)N[C@@H](CCC(N)=O)C(=O)N[C@@H](CCCCN)C(=O)N1CCC[C@H]1C(=O)N[C@@H](CO)C(=O)N[C@@H](CO)C(=O)NCC(=O)N[C@@H](C)C(=O)N1CCC[C@H]1C(=O)N1CCC[C@H]1C(=O)N1CCC[C@H]1C(=O)N[C@@H](CO)C(=O)O)C(C)C)[C@@H](C)CC
For B4, the “cAMP agonism % Emax” value was 0%, the “cAMP antagonism” value was 8.41 nM and the “cAMP antagonism % inhib” value was 100%. For the same binder, the “cAMP antagonism pIC50” value was 8.1.
